According to US20070048315A1:
Values joined by “and” are separate entries in the source; they are usually repeats but may differ in a detail not shown here. Identical values can stand only once.

Tests used:
[1] = biological target: "Bac-wt" human IL-23 (identical to elastikine human IL-23 in sequence, expressed in SF9 cells) (human) (UniProt P29460); assay: BIAcore SPR, mAb amine-coupled on CM5 chip, IL-23 in solution, 25 C
[2] = biological target: "N222Q" human IL-23 (elastikine sequence with Asn222 to Gln in the p40 subunit, expressed in SF9 cells) (human) (UniProt P29460); assay: as above

Kd [1] [nM] | Kd [2] | Binder
10 | 0.3 nM and 1 nM | humanized anti-human IL-23p19 antibody hum7G10 (antibody, human IgG1, kappa, V domains shown) VH: QVQLVQSGAEVKKPGASVKVSCKASGYTFTSNVMHWVRQAPGQGLEWMGYINPYNDGTKYNEKFKGRVTMTTDTSTSTAYMELRSLRSDDTAVYYCARNWDVAYWGQGTLVTVSS VL: DIQMTQSPSSLSASVGDRVTITCRASQSISDYLHWYQQKPGKAPKLLIYYASQSISGVPSRFSGSGSGTDFTLTISSLQPEDFATYYCQNGHSFPFTFGQGTKVEIKR
5.1 | 0.5 nM | humanized anti-human IL-23p19 antibody hum6H12 (antibody, human IgG1, kappa, V domains shown) VH: QVQLVQSGAEVKKPGASVKVSCKASGYTFNRYLIHWVRQAPGQGLEWMGYINPNNAGTNYNEKFKGRVTMTTDTSTSTAYMELRSLRSDDTAVYYCARNWDQAYWGQGTLVTVSS VL: DIQMTQSPSSLSASVGDRVTITCRASQSISDYLHWYQQKPGKAPKLLIYYTSQSISGVPSRFSGSGSGTDFTLTISSLQPEDFATYYCQNGHSFPFTFGQGTKVEIKR
